Test results: the Human Domainome abundance scans (Beltran et al. 2025)
± gives the uncertainty stated by the source.

B1: Histone H1t, residues 44 to 112; numbered along this chain, P22492 (parent)
chain: VSKLITEALSVSQERVGMSLVALKKALAAAGYDVEKNNSRIKLSLKSLVNKGILVQTRGTGASGSFKLS

Variants of: B1
Assay: abundance fitness (aPCA) (normalised: wild type 0, dead -1); higher = more abundant; growth selection in yeast, the domain comes from the species named
Conditions: Homo sapiens

Question: For VSKLITEALSVSQERVGMSLVALKKALAAAYYDVEKNNSRIKLSLKSLVNKGILVQTRGTGASGSFKLS [G31Y], which abundance fitness is on record?
Answer: The abundance fitness was -0.066 ± 0.076.

Question: For VSKLITEALSVSQERVGMSLVALKKALAAAVYDVEKNNSRIKLSLKSLVNKGILVQTRGTGASGSFKLS [G31V], which abundance fitness is on record?
Answer: Its abundance fitness is -0.149 ± 0.1.

Question: With VSKLITEALSVSQERVGMSLVALKKALAAASYDVEKNNSRIKLSLKSLVNKGILVQTRGTGASGSFKLS [G31S] as the variant, how does the abundance fitness read?
Answer: Its abundance fitness is -0.264 ± 0.042.

Question: Which abundance fitness does the source give for VSKLITEALSVSQERVGMSLVALKKALAAAQYDVEKNNSRIKLSLKSLVNKGILVQTRGTGASGSFKLS [G31Q] here?
Answer: Its abundance fitness is -0.268 ± 0.039.

Question: For VSKLITEALSVSQERVGMSLVALKKALAAAMYDVEKNNSRIKLSLKSLVNKGILVQTRGTGASGSFKLS [G31M], which abundance fitness is on record?
Answer: Its abundance fitness is -0.224 ± 0.036.

Question: With VSKLITEALSVSQERVGMSLVALKKALAAAGYEVEKNNSRIKLSLKSLVNKGILVQTRGTGASGSFKLS [D33E] as the variant, how does the abundance fitness read?
Answer: Its abundance fitness is 0.2 ± 0.074.

Question: For VSKLITEALSVSQERVGMSLVALKKALAAAGYWVEKNNSRIKLSLKSLVNKGILVQTRGTGASGSFKLS [D33W], which abundance fitness is on record?
Answer: Its abundance fitness is 0.259 ± 0.098.

Question: Which abundance fitness does the source give for VSKLITEALSVSQERVGMSLVALKKALAAAGYMVEKNNSRIKLSLKSLVNKGILVQTRGTGASGSFKLS [D33M] here?
Answer: The abundance fitness was 0.115 ± 0.064.

Question: For VSKLITEALSVSQERVGMSLVALKKALAAAGYKVEKNNSRIKLSLKSLVNKGILVQTRGTGASGSFKLS [D33K], which abundance fitness is on record?
Answer: The abundance fitness was -0.119 ± 0.097.

Question: With VSKLITEALSVSQERVGMSLVALKKALAAAGYQVEKNNSRIKLSLKSLVNKGILVQTRGTGASGSFKLS [D33Q] as the variant, how does the abundance fitness read?
Answer: The abundance fitness was 0.042 ± 0.052.

Question: With VSKLITEALSVSQERVGMSLVALKKALAAAGYHVEKNNSRIKLSLKSLVNKGILVQTRGTGASGSFKLS [D33H] as the variant, how does the abundance fitness read?
Answer: Its abundance fitness is 0.143 ± 0.078.

Question: For VSKLITEALSVSQERVGMSLVALKKALAAAGYYVEKNNSRIKLSLKSLVNKGILVQTRGTGASGSFKLS [D33Y], which abundance fitness is on record?
Answer: Its abundance fitness is 0.144 ± 0.078.

Question: With VSKLITEALSVSQERVGMSLVALKKALAAAGYNVEKNNSRIKLSLKSLVNKGILVQTRGTGASGSFKLS [D33N] as the variant, how does the abundance fitness read?
Answer: The abundance fitness was -0.254 ± 0.13.

Question: With VSKLITEALSVSQERVGMSLVALKKALAAAGYFVEKNNSRIKLSLKSLVNKGILVQTRGTGASGSFKLS [D33F] as the variant, how does the abundance fitness read?
Answer: The abundance fitness was 0.243 ± 0.059.

Question: For VSKLITEALSVSQERVGMSLVALKKALAAAGYRVEKNNSRIKLSLKSLVNKGILVQTRGTGASGSFKLS [D33R], which abundance fitness is on record?
Answer: The abundance fitness was 0.036 ± 0.065.

Question: For VSKLITEALSVSQERVGMSLVALKKALAAAGYAVEKNNSRIKLSLKSLVNKGILVQTRGTGASGSFKLS [D33A], which abundance fitness is on record?
Answer: Its abundance fitness is 0.063 ± 0.035.

Question: With VSKLITEALSVSQERVGMSLVALKKALAAAGYLVEKNNSRIKLSLKSLVNKGILVQTRGTGASGSFKLS [D33L] as the variant, how does the abundance fitness read?
Answer: The abundance fitness was -0.034 ± 0.033.

Question: Which abundance fitness does the source give for VSKLITEALSVSQERVGMSLVALKKALAAAGYTVEKNNSRIKLSLKSLVNKGILVQTRGTGASGSFKLS [D33T] here?
Answer: Its abundance fitness is -0.025 ± 0.056.

Question: With VSKLITEALSVSQERVGMSLVALKKALAAAGYIVEKNNSRIKLSLKSLVNKGILVQTRGTGASGSFKLS [D33I] as the variant, how does the abundance fitness read?
Answer: Its abundance fitness is -0.121 ± 0.075.

Question: Which abundance fitness does the source give for VSKLITEALSVSQERVGMSLVALKKALAAAGYVVEKNNSRIKLSLKSLVNKGILVQTRGTGASGSFKLS [D33V] here?
Answer: Its abundance fitness is 0.029 ± 0.034.

Question: With VSKLITEALSVSQERVGMSLVALKKALAAAGYSVEKNNSRIKLSLKSLVNKGILVQTRGTGASGSFKLS [D33S] as the variant, how does the abundance fitness read?
Answer: The abundance fitness was -0.021 ± 0.042.

Question: Which abundance fitness does the source give for VSKLITEALSVSQERVGMSLVALKKALAAAGYPVEKNNSRIKLSLKSLVNKGILVQTRGTGASGSFKLS [D33P] here?
Answer: Its abundance fitness is -0.214 ± 0.037.

Question: Which abundance fitness does the source give for VSKLITEALSVSQERVGMSLVALKKALAAAGYDREKNNSRIKLSLKSLVNKGILVQTRGTGASGSFKLS [V34R] here?
Answer: Its abundance fitness is -0.268 ± 0.036.

Question: With VSKLITEALSVSQERVGMSLVALKKALAAAGYDYEKNNSRIKLSLKSLVNKGILVQTRGTGASGSFKLS [V34Y] as the variant, how does the abundance fitness read?
Answer: The abundance fitness was -0.472 ± 0.12.

Question: Which abundance fitness does the source give for VSKLITEALSVSQERVGMSLVALKKALAAAGYDGEKNNSRIKLSLKSLVNKGILVQTRGTGASGSFKLS [V34G] here?
Answer: The abundance fitness was -0.306 ± 0.041.

Question: Which abundance fitness does the source give for VSKLITEALSVSQERVGMSLVALKKALAAAGYDMEKNNSRIKLSLKSLVNKGILVQTRGTGASGSFKLS [V34M] here?
Answer: Its abundance fitness is -0.098 ± 0.053.

Question: For VSKLITEALSVSQERVGMSLVALKKALAAAGYDAEKNNSRIKLSLKSLVNKGILVQTRGTGASGSFKLS [V34A], which abundance fitness is on record?
Answer: The abundance fitness was -0.171 ± 0.036.

Question: Which abundance fitness does the source give for VSKLITEALSVSQERVGMSLVALKKALAAAGYDKEKNNSRIKLSLKSLVNKGILVQTRGTGASGSFKLS [V34K] here?
Answer: The abundance fitness was -0.104 ± 0.078.

Question: For VSKLITEALSVSQERVGMSLVALKKALAAAGYDEEKNNSRIKLSLKSLVNKGILVQTRGTGASGSFKLS [V34E], which abundance fitness is on record?
Answer: Its abundance fitness is -0.346 ± 0.049.

Question: For VSKLITEALSVSQERVGMSLVALKKALAAAGYDPEKNNSRIKLSLKSLVNKGILVQTRGTGASGSFKLS [V34P], which abundance fitness is on record?
Answer: Its abundance fitness is -0.212 ± 0.037.

Question: With VSKLITEALSVSQERVGMSLVALKKALAAAGYDHEKNNSRIKLSLKSLVNKGILVQTRGTGASGSFKLS [V34H] as the variant, how does the abundance fitness read?
Answer: Its abundance fitness is -0.4 ± 0.092.

Question: Which abundance fitness does the source give for VSKLITEALSVSQERVGMSLVALKKALAAAGYDLEKNNSRIKLSLKSLVNKGILVQTRGTGASGSFKLS [V34L] here?
Answer: The abundance fitness was -0.214 ± 0.03.

Question: For VSKLITEALSVSQERVGMSLVALKKALAAAGYDSEKNNSRIKLSLKSLVNKGILVQTRGTGASGSFKLS [V34S], which abundance fitness is on record?
Answer: Its abundance fitness is -0.199 ± 0.035.

Question: For VSKLITEALSVSQERVGMSLVALKKALAAAGYDIEKNNSRIKLSLKSLVNKGILVQTRGTGASGSFKLS [V34I], which abundance fitness is on record?
Answer: The abundance fitness was -0.123 ± 0.093.

Question: With VSKLITEALSVSQERVGMSLVALKKALAAAGYDDEKNNSRIKLSLKSLVNKGILVQTRGTGASGSFKLS [V34D] as the variant, how does the abundance fitness read?
Answer: Its abundance fitness is -0.327 ± 0.11.

Question: For VSKLITEALSVSQERVGMSLVALKKALAAAGYDWEKNNSRIKLSLKSLVNKGILVQTRGTGASGSFKLS [V34W], which abundance fitness is on record?
Answer: The abundance fitness was -0.252 ± 0.042.

Question: For VSKLITEALSVSQERVGMSLVALKKALAAAGYDCEKNNSRIKLSLKSLVNKGILVQTRGTGASGSFKLS [V34C], which abundance fitness is on record?
Answer: The abundance fitness was -0.179 ± 0.059.

Question: For VSKLITEALSVSQERVGMSLVALKKALAAAGYDQEKNNSRIKLSLKSLVNKGILVQTRGTGASGSFKLS [V34Q], which abundance fitness is on record?
Answer: Its abundance fitness is -0.309 ± 0.051.

Question: With VSKLITEALSVSQERVGMSLVALKKALAAAGYDTEKNNSRIKLSLKSLVNKGILVQTRGTGASGSFKLS [V34T] as the variant, how does the abundance fitness read?
Answer: Its abundance fitness is -0.068 ± 0.047.
